Data as given in PMC10398351, “Structural and molecular insight into antibody recognition of dynamic neoepitopes in membrane tethered MUC1 of pancreatic cancer cells and secreted exosomes†” (RSC Chemical Biology, 2023).
Values belong to the binder of their own block, whether it stands above or below them.

Tests used:
PANC-1 cell surface MUC1 = molecular target: T1, PANC-1 cell surface MUC1 (Homo sapiens, PANC-1 cells, UniProt P15941, O-glycans ST, T and/or Tn at the Thr of the Asp-Thr-Arg region, as the paper concludes); assay: flow cytometry on cells; PANC-1 cells with Alexa 488 conjugated SN-131, 2 h on ice in PBS/EDTA, without or with 10 μM MUC1-5ST (8); conditions: one partner purified
T1 construct: MUC1, type 1 single-pass transmembrane mucin, endogenous in the human pancreatic cancer cell line PANC-1 (ATCC CRL-1469); also called endogenous MUC1 TRD; membrane-tethered MUC1; source: endogenous, on PANC-1 cells

[1] = molecular target: T2, MUC1 TRD on exosomes released from PANC-1 cells (Homo sapiens, PANC-1 exosomes, UniProt P15941); assay: ELISA; sandwich: exosomes from PANC-1 cells captured by coated anti-CD9 or anti-CD63 mAb, detected with AP-labelled SN-131 (1 μg/mL), room temperature; conditions: one partner purified
T2 construct: also called exosomal MUC1 TRD-STs; cargo MUC1 TRD; source: endogenous, exosomes isolated by ultracentrifugation from PANC-1 culture supernatant
T2 sequence (P15941 24-1255): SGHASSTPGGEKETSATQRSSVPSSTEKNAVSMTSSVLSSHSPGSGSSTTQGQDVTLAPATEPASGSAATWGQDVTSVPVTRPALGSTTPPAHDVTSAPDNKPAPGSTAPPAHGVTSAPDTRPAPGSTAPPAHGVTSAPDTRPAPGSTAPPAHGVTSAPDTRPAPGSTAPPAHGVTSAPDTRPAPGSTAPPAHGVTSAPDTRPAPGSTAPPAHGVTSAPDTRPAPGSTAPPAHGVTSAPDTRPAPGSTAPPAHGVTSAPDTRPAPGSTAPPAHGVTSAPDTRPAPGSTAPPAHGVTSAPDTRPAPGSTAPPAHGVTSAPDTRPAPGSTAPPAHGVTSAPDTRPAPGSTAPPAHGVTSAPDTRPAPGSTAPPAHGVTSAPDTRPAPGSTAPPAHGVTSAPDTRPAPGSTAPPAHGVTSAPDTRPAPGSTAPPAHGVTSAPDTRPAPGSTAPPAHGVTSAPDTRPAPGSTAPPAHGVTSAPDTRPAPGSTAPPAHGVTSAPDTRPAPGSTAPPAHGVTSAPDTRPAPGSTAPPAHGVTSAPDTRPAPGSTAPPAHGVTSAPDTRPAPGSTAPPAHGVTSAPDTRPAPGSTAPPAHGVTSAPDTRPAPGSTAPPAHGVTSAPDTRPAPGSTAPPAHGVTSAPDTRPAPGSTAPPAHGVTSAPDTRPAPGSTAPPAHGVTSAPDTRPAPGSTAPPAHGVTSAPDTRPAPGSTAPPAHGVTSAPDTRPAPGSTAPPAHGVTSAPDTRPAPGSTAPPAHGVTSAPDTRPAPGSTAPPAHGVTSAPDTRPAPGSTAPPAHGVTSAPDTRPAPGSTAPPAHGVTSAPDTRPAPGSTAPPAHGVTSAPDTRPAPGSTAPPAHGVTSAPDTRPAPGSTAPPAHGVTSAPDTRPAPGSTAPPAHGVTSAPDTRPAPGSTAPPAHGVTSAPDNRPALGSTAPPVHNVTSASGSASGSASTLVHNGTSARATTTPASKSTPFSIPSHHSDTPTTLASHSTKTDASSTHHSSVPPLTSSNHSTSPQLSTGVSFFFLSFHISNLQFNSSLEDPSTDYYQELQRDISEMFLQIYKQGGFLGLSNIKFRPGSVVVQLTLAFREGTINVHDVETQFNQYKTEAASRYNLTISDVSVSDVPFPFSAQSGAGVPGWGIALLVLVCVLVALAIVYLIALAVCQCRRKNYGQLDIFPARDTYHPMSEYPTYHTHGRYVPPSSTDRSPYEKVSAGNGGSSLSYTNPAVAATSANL

T1 sequence (P15941 24-1255): as above

- binding result (PANC-1 cell surface MUC1): binds
B1: Alexa488-conjugated SN-131 (antibody, V domains shown)
VH: QVQLQQSGAELARPGASVKLSCKASGYTFTNYGLSWVKQRTGQGLEWIGENHPGSGIIYHNEKFRGKATLTADKSSSTAYVQLSSLTSEDSAVYFCARSSGTRGFAYWGQGTLVTVSA
VL: DVLMTQTPLSLPVSLGDQASISCRSSQSIVHSNGNTYLEWYLQKPGQSPKLLIYKVSNRFSGVPDRFSGSGSGTDFTLKISRVEAEDLGVYYCFQGSHGPWTFGGGTKLEIK
notes: as the heavy chain of m1; Fab chains in PDB 8HRH; as the light chain of m1; IgG2a

- binding result [1]: binds
B2: AP (alkaline phosphatase) labelled SN-131 mAb (antibody, V domains shown)
VH: B1 VH
VL: B1 VL
notes: as for B1
